# Patent US20110280881A1, “NOVEL ANTI-HSP90 MONOCLONAL ANTIBODY” (RIKEN, priority 2010, published 2011)
# B1: 6H8: anti-HSP90 monoclonal antibody produced by hybridoma FERM BP-11222; epitope … (antibody)
# VH: QVQLQQSGPELVKPGASVRISCKASGYTFTSYYIHWVKQRPGQGLEWIGWIYPGNVNTKYNEKFKGKATLTADKSSSTAYMQLSSLTSEDSAVYFCARYGNYPFAYWGQGTLVTVSAAKTTAPSVYPLAPVCGDTTGSSVTLGCLVKGYF
# VL: DVVMTQTPLSLPVSLGDQASISCRSSQSLVHSNGNTYLHWYLQKPGQSPKLLIYKVSNRFSGVPDRFSGSGSGTDFTLKISRVEAEDLGVYFCSQSTHVPPTFGGGTKLEIKRADAAPTVSIFPPSSEQLTSGGASVVCFLNNFYPKDINVKWKIDGS
# B2: 6H8-OVA: high molecular weight conjugate of the 6H8 antibody and maleimide-activated OVA (conjugate)
# VH: B1 VH
# VL: B1 VL
# chain: GSIGAASMEFCFDVFKELKVHHANENIFYCPIAIMSALAMVYLGAKDSTRTQINKVVRFDKLPGFGDSIEAQCGTSVNVHSSLRDILNQITKPNDVYSFSLASRLYAEERYPILPEYLQCVKELYRGGLEPINFQTAADQARELINSWVESQTNGIIRNVLQPSSVDSQTAMVLVNAIVFKGLWEKAFKDEDTQAMPFRVTEQESKPVQMMYQIGLFRVASMASEKMKILELPFASGTMSMLVLLPDEVSGLEQLESIINFEKLTEWTSSNVMEERKIKVYLPRMKMEEKYNLTSVLMAMGITDVFSSSANLSGISSAESLKISQAVHAAHAEINEAGREVVGSAEAGVDAASVSEEFRADHPFLFCIKHIATNAVLFFGRCVSP
# What was measured:
# [1] = tested on: cell surface HSP90α and β; experiment: Immunoprecipitation of cell surface HSP90 from DC2.4 living cells; assay type: binding; settings: DC2.4 living cells incubated with antibody on ice
# Method: Mammalian HSP90 occurs in two isoforms: HSP90α and β. The following experiment was performed to determine whether not only HSP90α but also HSP90β is recognized by the antibody of the present invention. First, DC2.4 living cells were incubated along with an antibody on ice using 6H8, 2A6 or normal mouse IgG as a negative control. After being thoroughly washed to remove the unreacted antibody, the cells were lysed; the lysate was centrifuged at 10,000×g, and the resulting supernatant was incubated along with Protein G-Sepharose. The bound material was subjected to SDS-PAGE, after which blotting was performed using an anti-HSP90α antibody (SPS-771, Assay designs), an anti-HSP90β antibody (PB-118-P1, Neomarkers), or an antibody that recognizes both HSP90α and β (6B1C4, another antibody obtained in Example 1).
# [2] = tested on: cell surface HSP90 on DC2.4 cells; experiment: Inhibition of 6H8-OVA cross-presentation by pre-treatment of DC2.4 cells with antibodies; assay type: cell-based; settings: antibody 20 μg/ml 15 minutes, then 6H8-OVA 3 or 1 μg/ml, IFNγ ELISA
# Method: Pellets of DC2.4 cells (1.5×10^6 cells) were incubated with 20 μg/ml of each antibody [6H8D2 (6H8), 2A6E9 (2A6) or 4B6G12 (456)] at 37° C. with 5% CO2 for 15 minutes. Subsequently, 6H8-OVA was added to a concentration of 3 or 1 μg/ml, and the pellets were incubated at 37° C. with 5% CO2 for 3 hours. After being washed to remove the unreacted antibody and 6H8-OVA, the cells were fixed in 0.5% para-formaldehyde. These cells (1×10^4 cells) were co-cultured with 1×10^5 OT-I CD8^+ T cells in a 96-well round-bottomed plate at 37° C. with 5% CO2; the supernatant was recovered as appropriate and assayed for IFNγ according to a standard ELISA method.
# [3] = tested on: OT-II CD4+ T cells; experiment: In vivo division of OT-II CD4+ T cells; set-up: species or system mouse; settings: series of doses injected into recipient mice
# [4] = tested on: OT-I CD8+ T cells; experiment: In vivo proliferation of transplanted CFSE-labeled OT-I CD8+ T cells; set-up: species or system mouse; settings: for proliferation of transplanted OT-I CD8+ T cells: 3 μg fractions 15 to 19 (mixture), three days
# Method: First, CFSE-labeled OT-I CD8^+ T cells were generated as follows: A 10 mM CFSE stock solution in DMSO was diluted with PBS to prepare a 10 μM CFSE solution. A pellet of splenocytes prepared in a 15-ml tube was thoroughly loosened by tapping, after which 2 ml of the 10 μM CFSE solution was added thereto, and the mixture was gently vortexed. After being allowed to stand at room temperature for 5 minutes, the cells were washed twice with PBS (5 ml).
# The CFSE-labeled OT-I CD8^+ T cells were transplanted to recipient mice from the tail vein. The recipient mice used were a wild-type B6 mouse (WT B6) and a TAP1-deficient mouse [TAP1 KO (purchased from Jackson Laboratory, U.S.A.)]. At the same time, 3 μg of the fractions 15 to 19 (mixture), 3 μg of the fraction 33, or a mixture of the fraction 33 (3 μg) and the free 6H8 antibody (3 μg) was injected. Three days later, splenocytes of each recipient mouse were collected and examined for proliferation of the transplanted cells.
# A mixture of the fractions 15 to 19 containing the 6H8-OVA conjugate was injected into recipient mice at a series of doses, and the proliferation of OT-I CD8^+ T cells was examined in the same manner as the above. As a result, higher doses of the mixture more potently promoted the proliferation of CD8^+ T cells, although this effect was observed even at 0.1 μg (upper panel of FIG. 8C).
Molecule,recognition of cell surface HSP90α and β on living cells (immunoprecipitation) [1],effect of antibody pre-treatment on the cross-presentation effect of 6H8-OVA [2],promotion of the division of OT-II CD4+ T cells [3],proliferation of transplanted OT-I CD8+ T cells ([4]; TAP1-deficient mouse),dose at which promotion of proliferation of OT-I CD8+ T cells was observed ([4]; series of doses injected into recipient mice) [µg],proliferation of transplanted OT-I CD8+ T cells ([4]; wild-type B6 mouse)
B1,recognized,attenuated,–,–,–,–
B2,–,–,required a higher dose,did not induce the proliferation of CD8^+ T cells at all,≤ 0.1,proliferation of CD8^+ T cells was confirmed
